Values quoted from earlier work, collected in patent US5972698A, “Tryptase inhibitor” (Novartis Corporation, priority 1993, dated 1999).

B1: ovomucoid inhibitor: proteinase inhibitor derived from non-human species (protein, UniProt P01005 25-210, looked up)
Ovomucoid: AEVDCSRFPNATDKEGKDVLVCNKDLRPICGTDGVTYTNDCLLCAYSIEFGTNISKEHDGECKETVPMNCSSYANTTSEDGKVMVLCNRAFNPVCGTDGVTYDNECLLCAHKVEQGASVDKRHDGGCRKELAAVSVDCSEYPKPDCTAEDRPLCGSDNKTYGNKCNFCNAVVESNGTLTLSHFGKC
B2: mucus-proteinaseinhibitor: naturally occurring antiproteinase (protein, UniProt P03973 26-132, looked up)
Antileukoproteinase: SGKSFKAGVCPPKKSAQCLRYKKPECQSDWQCPGKKRCCPDTCGIKCLDPVDTPNPTRRKPGKCPVTYGQCLMLNPPNFCEMDGQCKRDLKCCMGMCGKSCVSPVKA
B3: soybean trypsin inhibitor: printed as 'soybean and lima bean trypsin inhibitor' (protein, UniProt P01070 25-205, looked up)
Trypsin inhibitor A: DFVLDNEGNPLENGGTYYILSDITAFGGIRAAPTGNERCPLTVVQSRNELDKGIGTIISSPYRIRFIAEGHPLSLKFDSFAVIMLCVGIPTEWSVVEDLPEGPAVKIGENKDAMDGWFRLERVSDDEFNNYKLVFCPQQAEDDKCGDIGISIDHDDGTRRLVVSKNKPLVVQFQKLDKESL

Test system: Human tryptase

| Molecule | inhibition of tryptase (literature) |
| --- | --- |
| B1 | not affected |
| B2 | not inhibited |
| B3 | not affected |
